Source: patent US20190125833A1 (Five Prime, published 2019)

Biological target: T1, Myostatin (UniProt O14793 267-375, limits assumed)
T1 sequence (looked up): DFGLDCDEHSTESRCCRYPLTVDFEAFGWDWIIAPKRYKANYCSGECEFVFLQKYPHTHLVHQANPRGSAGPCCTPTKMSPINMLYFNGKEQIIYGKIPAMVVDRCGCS
Assay: cell-based or functional assay

Binder | IC50 of inhibition of myostatin dependent SMAD2/3 activation (luciferase reporter, HEK293, 0.1 nM myostatin) [nM] | fold difference of IC50 against hNOPE (1-620) ECD-FC [fold] | fold difference of IC50 against hNOPE (1-957) ECD-FC [fold]
hNOPE (1-957) ECD-FC (Fc fusion, not shown: a dimerising Fc or GST) ELLLPQETTVELSCGVGPLQVILGPEQAAVLNCSLGAAAAGPPTRVTWSKDGDTLLEHDHLHLLPNGSLWLSQPLAPNGSDESVPEAVGVIEGNYSCLAHGPLGVLASQTAVVKLATLADFSLHPESQTVEENGTARFECHIEGLPAPIITWEKDQVTLPEEPRLIVLPNGVLQILDVQESDAGPYRCVATNSARQHFSQEALLSVAHRGSLASTRGQDVVIVAAPENTTVVSGQSVVMECVASADPTPFVSWVRQDGKPISTDVIVLGRTNLLIANAQPWHSGVYVCRANKPRTRDFATAAAELRVLAAPAITQAPEALSRTRASTARFVCRASGEPRPALRWLHNGAPLRPNGRVKVQGGGGSLVITQIGLQDAGYYQCVAENSAGMACAAASLAVVVREGLPSAPTRVTATPLSSSAVLVAWERPEMHSEQIIGFSLHYQKARGMDNVEYQFAVNNDTTELQVRDLEPNTDYEFYVVAYSQLGASRTSTPALVHTLDDVPSAAPQLSLSSPNPSDIRVAWLPLPPSLSNGQVVKYKIEYGLGKEDQIFSTEVRGNETQLMLNSLQPNKVYRVRISAGTAAGFGAPSQWMHHRTPSMHNQSHVPFAPAELKVQAKMESLVVSWQPPPHPTQISGYKLYWREVGAEEEANGDRLPGGRGDQAWDVGPVRLKKKVKQYELTQLVPGRLYEVKLVAFNKHEDGYAAVWKGKTEKAPAPDMPIQRGPPLPPAHVHAESNSSTSIWLRWKKPDFTTVKIVNYTVRFSPWGLRNASLVTYYTSSGEDILIGGLKPFTKYEFAVQSHGVDMDGPFGSVVERSTLPDRPSTPPSDLRLSPLTPSTVRLHWCPPTEPNGEIVEYLILYSSNHTQPEHQWTLLTTQGNIFSAEVHGLESDTRYFFKMGARTEVGPGPFSRLQDVITLQEKLSDSLDMHSVT | 0.5 | – | –
mNOPE (1-955) ECD-FC (Fc fusion, not shown: a dimerising Fc or GST) ELPLPQETTVKLSCDEGPLQVILGPEQAVVLDCTLGATAAGPPTRVTWSKDGDTVLEHENLHLLPNGSLWLSSPLEQEDSDDEEALRIWKVTEGSYSCLAHSPLGVVASQVAVVKLATLEDFSLHPESQIVEENGTARFECHTKGLPAPIITWEKDQVTVPEESRLITLPNGVLQILDVQDSDAGSYRCVATNSARQRFSQEASLTVALRGSLEATRGQDVVIVAAPENTTVVSGQSVVMECVASADPTPFVSWVRQDGKPISTDVIVLGRTNLLIASAQPRHSGVYVCRANKPRTRDFATAAAELRVLAAPAISQAPEALSRTRASTARFVCRASGEPRPALHWLHDGIPLRPNGRVKVQGGGGSLVITQIGLQDAGYYQCVAENSAGTACAAAPLAVVVREGLPSAPTRVTATPLSSSSVLVAWERPELHSEQIIGFSLHYQKARGVDNVEYQFAVNNDTTELQVRDLEPNTDYEFYVVAYSQLGASRTSSPALVHTLDDVPSAAPQLTLSSPNPSDIRVAWLPLPSSLSNGQVLKYKIEYGLGKEDQVFSTEVPGNETQLTLNSLQPNKVYRVRISAGTGAGYGVPSQWMQHRTPGVHNQSHVPFAPAELKVRAKMESLVVSWQPPPHPTQISGYKLYWREVGTEEEADGDRPPGGRGDQAWDVGPVRLKKKVKQYELTQLVPGRLYEVKLVAFNKHEDGYAAVWKGKTEKAPTPDLPIQRGPPLPPAHVHAESNSSTSIWLRWKKPDFTTVKIVNYTVRFGPWGLRNASLVTYYTSSGEDILIGGLKPFTKYEFAVQSHGVDMDGPFGSVVERSTLPDRPSTPPSDLRLSPLTPSTVRLHWCPPTEPNGEIVEYLILYSNNHTQPEHQWTLLTTEGNIFSAEVHGLESDTRYFFKMGARTEVGPGPFSRLQDVITLQKTFSDSLDVHAV | 0.068 | 2.5 | 7
